Results from patent US20140112919A1, “INTERLEUKIN-10 ANTIBODIES” (MERCK SHARP & DOHME CORP., published 2014).

Target: humanized anti-human IL-10 antibody SCH 708980 (12G8) (Homo sapiens)
Assay: competitive ECLA (IGEN): unlabeled IL-10 titrated against hIL-10-biotin for binding to humanized 12G8-1
Method: 96 well Polypropylene plates (Costar, Cat. No. 3365, Fisher Sci. Cat. No. 07200697); assay buffer of 0.1% BSA, 0.05% tween 20, PBS pH 7.5; paramagnetic beads (Streptavidin-Dynabeads, Igen, Inc., Cat. No. 110029); recombinant human IL-10 dimer (hIL-10-dimer); recombinant human IL-10-monomer (hIL-10-mono); recombinant mouse IL-10 (mIL-10); recombinant cyno IL-10 (cyno IL-10); and recombinant hIL-10Ra (hIL-10Ra): FLAG-tagged protein. Ori-Tag labeled anti-FLAG M2 monoclonal antibodies were prepared using Ori-Tag-NHS ester (Igen, Inc. Cat. No. 110034) according to manufacturer's protocol (OriTag label: IgG challenge ratio 8:1). Anti-Flag M2 monoclonal antibodies were purchased from Sigma (Cat. No. F3165). Ori-Tag labeled anti hIgG 1A2 monoclonal antibodies were prepared as above using rat anti hIgG monoclonal antibodies. Ori-Tag labeled anti rat IgG antibodies were prepared as above from polyclonal Goat anti rat IgG (H+L) antibodies (Jackson Immunoresearch Laboratories, Inc. PA, Cat. No. 112-005-143). Biotinylated recombinant human IL-10
1/3 serial dilutions in 50 microliters of the assay buffer were made in 96-well microtiter plate for all unlabeled IL-10 preparations (mIL-10, cyno IL-10, hIL-10 dimer, hIL-10 mono) starting with 3 μg/ml in the first well. […] Percent inhibition of the signal by unlabeled IL-10 preparations was calculated relative to the control samples. […]

Sequence of humanized anti-human IL-10 antibody SCH 708980 (12G8) (Homo sapiens) (VH, as listed by the source, chain 1 of 2): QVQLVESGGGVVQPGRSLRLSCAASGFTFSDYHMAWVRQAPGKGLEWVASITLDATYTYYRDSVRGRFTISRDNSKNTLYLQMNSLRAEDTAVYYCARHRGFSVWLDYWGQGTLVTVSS
Sequence of humanized anti-human IL-10 antibody SCH 708980 (12G8) (Homo sapiens) (VL, as listed by the source, chain 2 of 2): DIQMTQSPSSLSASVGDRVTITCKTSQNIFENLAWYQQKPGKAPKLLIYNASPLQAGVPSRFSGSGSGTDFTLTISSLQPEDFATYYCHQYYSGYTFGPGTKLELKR

B1: recombinant human IL-10-monomer (ligand)
chain: SPGQGTQSENSCTHFPGNLPNMLRDLRDAFSRVKTFFQMKDQLDNLLLKESLLEDFKGYLGCQALSEMIQFYLEEVMPQAENQDPDIKAHVNSLGENLKTLRLRLRRCHRFLPCENKSKAVEQVKNAFNKLQEKGIYKAMSEFDIFINYIEAYMTMKIRN
B1 was tested, and the IC50 was 5.8 nM.
